This passage reports Kd results from PMC1540706 (2006).

The chains are these.
T1: human β2-appendage (700–937), side site mutant used for ITC (human, UniProt P63010 700-937)
T1 chain: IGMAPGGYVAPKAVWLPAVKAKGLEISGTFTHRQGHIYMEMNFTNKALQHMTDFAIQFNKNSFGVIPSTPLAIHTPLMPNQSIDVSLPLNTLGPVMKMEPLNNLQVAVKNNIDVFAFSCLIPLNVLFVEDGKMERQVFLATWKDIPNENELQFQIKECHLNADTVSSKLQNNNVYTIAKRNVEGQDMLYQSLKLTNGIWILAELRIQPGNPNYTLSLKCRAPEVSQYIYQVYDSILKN

B1: Epsin1-MD (protein)
chain: TGGKEESSLMDLADVFTTPAPPQASDPWGGPASVPTAVPVAAAASDPWGAPAVPPAADPWGGAAPTPASGDPWRPAAPTGPSVDPWGGTPAPAAGEGPTSDPWGSADGGAPVSGPPSSDPWAPAPAFSDPWGGSPAKPSSNGTAVGGFDTEPD
B2: 6× His human Eps15-MD (530–791) (domain or fragment)
chain: STSSSETANLNEHVEGQSNLESEPIHQESPARSSPELLPSGVTDENEVTTAVTEKVCSELDNNRHSKEEDPFNVDSSSLTGPVADTNLDFFQSDPFVGSDPFKDDPFGKIDPFGGDPFKGSDPFASDCFFRQSTDPFATSSTDPFSAANNSSITSVETLKHNDPFAPGGTVVAASDSATDPFASVFGNESFGGGFADFSTLSKVNNEDPFRSATSSSVSNVVITKNVFEETSVKSEDEPPALPPKIGTPTRPCPLPPGKRSI
B3: human β2-appendage (700–937) used for ITC (domain or fragment)
chain: T1 chain with A116Y
B4: human β2-appendage (700–937), top site mutant used for ITC (domain or fragment)
chain: T1 chain with A116Y, Y189V
B5: human β2-appendage (700–937) R879A used for ITC (domain or fragment)
chain: T1 chain with A116Y, R180A

Where a chain is given by its changes, count along the chain named. Numbers in names are those of the source.

Among the targets are Eps15 P-long peptide (UniProt P42566); Epsin P1; ARH peptide (UniProt Q5SW96); Epsin P4; epsinR peptide (UniProt Q14677).
Holding throughout (experiment): ITC
For orientation: Isothermal titration calorimetry measures the heat released or taken up as one component is titrated into another.

The target in assay [1] is B5.
Assay [2] concerns the target T1, human β2-appendage (700–937), side site ….
For assay [3], the target named is AP2 α-appendage appendage (Mus musculus, UniProt P17427).
AP2 α-appendage appendage, sequence (P17427 701-938): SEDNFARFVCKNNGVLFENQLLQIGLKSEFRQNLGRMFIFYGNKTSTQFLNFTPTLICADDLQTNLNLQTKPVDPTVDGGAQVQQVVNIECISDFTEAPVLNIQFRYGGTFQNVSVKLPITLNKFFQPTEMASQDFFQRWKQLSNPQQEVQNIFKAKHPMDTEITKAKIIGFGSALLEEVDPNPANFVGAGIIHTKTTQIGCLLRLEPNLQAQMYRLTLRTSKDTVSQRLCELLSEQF
Assay [4] addresses B3.
In assay [5] the target is B4.

Take DDDIVFEDFARQRLKGMKDD [β-arrestin P-long peptide]: the Kd in [1] was found to be 170 nM; in assay [2] it was 1700 nM.
The molecule SFFEDNFVPEIS [amphiphysin DNF 12mer peptide] yielded a Kd in [3] of 2500 nM.
In turn, B1 came in with a Kd in assay [4] of 35 µM.
Turning to B2, the figures for the Kd in assay [5] and in assay [4] were 11 µM and 18 µM, respectively.
On to B3, for which the Kd in the assay with Eps15 P-long peptide was 12 µM; in the assay with Epsin P1 it was 131 µM; with ARH peptide, 4.7 µM; with Epsin P4, 160 µM.
Molecule B4 had a Kd with epsinR peptide of 77 µM.
For B5, in the assay with ARH peptide, binding was put at a Kd of 5.5 µM.
SFGDGFADFSTL [Eps15 P-short peptide] displayed a Kd in assay [5] of 59 µM.

The term Kd denotes the free concentration of one partner at which half of the binding sites on the other are occupied at equilibrium, for simple one-to-one binding.
